Laboratory results from patent US10167314 (NORTHWESTERN UNIVERSITY, dated 2019).
Ends that are not written are not given here.

Biological target: N-methyl-D-aspartate (NMDA) receptor (rat)
Assay: cell-based or functional assay

With TPPT-NH2 [GLYX-13 (L-threonyl-L-prolyl-L-prolyl-L-threonine amide)] the “intrinsic activity relative to D-serine, pharmacologically isolated NMDA receptor current in the hippocampal slice assay” value was 23%.
